The text below walks through data of patent publication US20160340659A1 (YISSUM RESEARCH AND DEVELOPMENT COMPANY OF THE HEBREW …, published 2016).

Where no end group is shown, it is not given here.

The target in experiment [1] is T1, actin (Example II solid-phase assay and BIAcore; source not stated) (Oryctolagus cuniculus (Rabbit), UniProt P68135 3-377). Kind of experiment: SPR, BIAcore 3000, actin amine-coupled to CM5 chip; column heads taken as printed. The protocol:
(§1) SPR was performed on a BIAcore 3000 instrument (BIAcore, Uppsala, Sweden). Actin was diluted in 100 mM CH3COONa pH 4.6 to a final concentration of 20 μg/ml (200 μl total) resulting in ˜1 ng immobilized actin on a CM5 BIAcore sensor chip (GE Healthcare Bio-Sciences AB) using the standard BIAcore amine coupling chemistry protocol. The CM5 chip allows four separate flow cells to be operated in the BIAcore 3000 instrument used in these experiments. Coupling is achieved by activating the surface of the sensor chips with equal volumes of 50 mM N-hydroxysuccimide (NHS)/200 mM Nethyl-N-(3-[…])-carboiimide (EDC) (BIAcore, AB, Uppsala, Sweden) to form activated carboxyl groups. An actin solution (15 μg/ml) was run over the chip for 5 min at a rate of 10 μl/min, allowing the amine groups on the protein to react with the activated esters. In the final stage of immobilization, the surface was blocked by 1M ethanol amine, pH 8.0. […] Injections were performed simultaneously over all four channels and blank surface (a plain dextran matrix, channel 1) was used as control. The net signal was obtained by subtracting the blank signal from the signal of the immobilized surface. The association phase for protein or peptides binding to actin was followed for 4 min, and dissociation phases were monitored for 3 min. Surface regeneration between consecutive binding cycles included a 1 min injection of 1 mM NaOH. The response was monitored as a function of time (sensorgram) at 25° C. Multi-concentration data were globally fit using BIA evaluation 3.2 software.

Experiment [2] deals with T1, actin (Example II solid-phase assay and …). Description: solid-phase actin binding assay: 500 ng actin coated per well, peptide in 1:2 dilutions from 500 ng/well, rabbit anti-trT2-49 and goat anti-rabbit IgG-HRP, A655. The protocol:
(§2) 96-well plates (MaxiSorp® flat-bottom 96-well plate, Fisher Scientific Inc., Fair Lawn, N.J.) were coated with 500 ng actin in 100 μl carbonate-bicarbonate buffer (pH 9.5) for 1 h at 37° C. The plate was washed once with TBS and then blocked with 3% BSA in 200 μl TBS buffer at 37° C., for 1 h. […] The wells were washed three times with TBST and then incubated with 100 μl goat anti-rabbit IgG-HRP (Jackson ImmunoResearch, West Grove, Pa.) diluted 1:10,000 in TBS, for 1 h at 37° C. Wells were then washed twice with TBST, and once with TBS before 100 μl substrate (1-step Ultra TMB-ELISA, Pierce, Fisher Scientific Inc.) were added. Absorbance at 655 nm was measured 10 min thereafter using a Power Wave 200 Microplate Scanning Spectrophotometer (Bio-Tek Instrument, Winooski, Vt.). Affinity was evaluated by double reciprocal plotting.
(§3) For further insight on the actin binding site within the hRNASET2 protein sequence 29 candidate peptides were tested for their ability to bind actin.

For experiment [3] the target is unchanged. Description: solid-phase actin binding assay (ELISA, immobilized actin), double reciprocal plot. As to the method: as §2, §3
Experiment [4] shares this target. Description: not given; presumably the solid-phase actin binding assay of the 29 peptides.
Experiment [5] has the same target. Description: SPR, BIAcore 3000, actin amine-coupled to CM5 chip. The protocol: as §1
For orientation: SPR reads the build-up and loss of mass on a sensor chip optically.

Experiment [6] shares this target. Kind of experiment: solid-phase actin binding assay: 500 ng actin coated per well, protein in 1:2 dilutions from 500 ng/well, rabbit anti-trT2-49 and goat anti-rabbit IgG-HRP, A655. As to the method: as §2
To further evaluate the strength of this interaction BIAcore analysis was performed in order to quantify and understand the kinetics of the interaction between these two molecules.

Experiment [7] shares this target. The experiment is described as above. As to the method:
as §2, §3
The source holds these as a separate data set.

Experiment [8] shares this target. Described as above. The protocol:
as §2, §3
This is another data set of the same source.

B1: peptide A103-Q159 (peptide)
peptide: ALNSQKKYFGRSLELYRELDLNSVLLKLGIKPSINYYQVADFKDALARVYGVIPKIQ
notes: Synthetic peptide of human RNASET2, tested free in solution; also called 22A
As to B1, the figures for the Kd in experiment [1] and in experiment [3] were 0.00322 µM and 0.068 µM, respectively. Moreover, in experiment [1], the koff (as a rule, the first-order rate constant of dissociation) is 3.04 s⁻¹. In experiment [2], the “EC50 (read off the curve)” value was about 20 ng/100ul.
As to KKYFGRSLELYRELDL (also called K108-L123 (16 aa)) [peptide K108-L123], the binding result in experiment [4] is listed as “no binding”.

B2: peptide K108-K133 (peptide)
peptide: KKYFGRSLELYRELDLNSVLLKLGIK
modifications: not fully specified
notes: Synthetic 26 aa peptide of human RNASET2 (helix 5 and 6), tested free in solution in ELISA and SPR; also called 22B; T2 peptide
Consider B2, for which, in experiment [1], the Kd (in general, the constant that tells how readily two partners part at equilibrium) was determined as 14.2 µM and the koff was found to be 0.0458 s⁻¹. Besides, in experiment [5], the kon – broadly, a measure of how fast the partners come together – is 3320 M⁻¹ s⁻¹.

B3: trT2-49m polypeptide (other)
chain: EGCNRSWPFNLEEIKDLLPEMRAYWPDVIHSFPNRSRFWKHEWEKHGTCAAQVDALNSQKKYFGRSLELYRADFKDALARVYGVIPKIQCLPPSQDEEVQTIGQIELCLTKQDQQLQNCTEPGEQPSPKQEVWLANGAAESRGLRVCEDGPVFYPPPKKTKH
In experiment [1], B3 showed a Kd of 19.4 µM and a koff of 0.00969 s⁻¹. This molecule displayed a kon in experiment [5] of 500 M⁻¹ s⁻¹. For the same molecule, the “EC50 (read off the curve)” value in experiment [6] is about 20 ng/100ul.

B4: truncated RNASET2 polypeptide trT2-49 (other)
chain: EGCNRSWPFNLEEIKDLLPEMRAYWPDVIHSFPNRSRFWKHEWEKHGTCAAQVDALNSQKKYFGRSLELYRELDLNSVLLKLGIKPSINYYQVADFKDALARVYGVIPKIQCLPPSQDEEVQTIGQIELCLTKQDQQLQNCTEPGEQPSPKQEVWLANGAAESRGLRVCEDGPVFYPPPKKTKH
notes: Described as amino acids 49-232 of full length, native RNASET2; also called truncated T2 polypeptide
In the case of B4, the Kd in experiment [1] worked out at 7.72 µM. The molecule further returned a koff in experiment [1] of 0.0132 s⁻¹. The “EC50 (read off the curve)” value in experiment [7], in experiment [8] and in experiment [6] was about 30 ng/100ul throughout. Further, the kon in experiment [5] amounted to 1710 M⁻¹ s⁻¹.
